Reference: article PMC10450164 (Nucleic Acids Research, 2023)

B1: TFAP2B DBD-HSH tandem domain (aa 219-457) (domain or fragment)
chain: not shown
B2: TFAP2A DBD-HSH tandem domain (aa 203-420) (domain or fragment)
chain: not shown
B3: TFAP2A HSH domain (aa 279-411) (domain or fragment, human, UniProt P05549 279-411, looked up)
chain: GRRKAANVTLLTSLVEGEAVHLARDFGYVCETEFPAKAVAEFLNRQHSDPNEQVTRKNMLLATKQICKEFTDLLAQDRSPLGNSRPNPILEPGIQSCLTHFNLISHGFGSPAVCAAVTALQNYLTEALKAMDK

Columns and labels:
[1] = target: the molecule itself; assay: crystal structure
[2] = target: the molecule itself; assay: SEC

Row | Protein | binding result [1] | stoichiometry N [2]
1 | B1 | binds | 
2 | B2 |  | 2
3 | B3 |  | 2
